How the values were obtained:
GFP-LC3B = test: Co-immunoprecipitation of full-length PLEKHM1 LIR variants with GFP-LC3B; conditions: full-length PLEKHM1-Flag, Fig 4C
endogenous GABARAP = test: Co-immunoprecipitation of GFP-FUNDC1 with endogenous GABARAP, HEK293 cells; format: cell-based; conditions: HEK293, non-stimulated (DMSO); Fig 5C left
Protocol: (§1) Blots were probed for the presence of endogenous GABARAP and LC3B proteins. • 3xFlag‐FIP200 WT, E703V, I705V, E703V/I705V and F702A/I705A were overexpressed in HEK293 cells and immunoprecipitated using anti‐Flag beads and subjected to SDS–PAGE and Western blotting. Blots were probed for the presence of endogenous GABARAP and LC3B proteins. • GFP‐FUNDC1 WT, E19V, L21V, E19V/L21V and Y18A/L21A were overexpressed in HEK293 cells and either treated with vehicle only (DMSO) or 20 μM CCCP for 2 h, lysed and GFP‐FUNDC1 immunoprecipitated using anti‐GFP beads (or anti‐RFP beads as control) and subjected to SDS–PAGE and Western blotting. Blots were probed for the presence of endogenous GABARAP and LC3B proteins.

endogenous LC3B = test: Co-immunoprecipitation of GFP-FUNDC1 with endogenous LC3B, HEK293 cells; format: cell-based; conditions: HEK293, non-stimulated (DMSO); Fig 5C left
Protocol: as §1

B1: PLEKHM1‐WCIL (full length): full-length PLEKHM1-Flag, variant LIR WVNV/WCIL (protein)
chain: MLSVVENGLDPQAAIPVIKKKLVGSVKALQKQYVSLDTVVTSEDGDANTMCSALEAVFIHGLHAKHIRAEAGGKRKKSAHQKPLPQPVFWPLLKAVTHKHIISELEHLTFVNTDVGRCRAWLRLALNDGLMECYLKLLLQEQARLHEYYQPTALLRDAEEGEFLLSFLQGLTSLSFELSYKSAILNEWTLTPLALSGLCPLSELDPLSTSGAELQRKESLDSISHSSGSEDIEVHHSGHKIRRNQKLTASSLSLDTASSSQLSCSLNSDSCLLQENGSKSPDHCEEPMSCDSDLGTANAEDSDRSLQEVLLEFSKAQVNSVPTNGLSQETEIPTPQASLSLHGLNTSTYLHCEAPAEPLPAQAASGTQDGVHVQEPRPQAPSPLDLQQPVESTSGQQPSSTVSETAREVGQGNGLQKAQAHDGAGLKLVVSSPTSPKNKSWISEDDFYRPSREQPLESASDHPIASYRGTPGSRPGLHRHFSQEPRKNCSLGALDQACVPSPGRRQAQAAPSQGHKSFRVVHRRQMGLSNPFRGLMKLGTVERRGAMGIWKELFCELSPLEFRLYLSNEEHTCVENCSLLRCESVGPAHSDGRFELVFSGKKLALRASSQDEAEDWLDRVREALQKVRPQQEDEWCILQYPDQPEEPPEAPQGCLSPSDLLSEPAALQGTQFDWSSAQVPEPDAIKESLLYLYMDRTWMPYIFSLSLEALKCFRIRNNEKMLSDSHGVETIRDILPDTSLGGPSFFKIITAKAVLKLQAGNAEEAALWRDLVRKVLASYLETAEEAVTLGGSLDENCQEVLKFATRENGFLLQYLVAIPMEKGLDSQGCFCAGCSRQIGFSFVRPKLCAFSGLYYCDICHQDDASVIPARIIHNWDLTKRPICRQALKFLTQIRAQPLINLQMVNASLYEHVERMHLIGRRREQLKLLGDYLGLCRSGALKELSKRLNHRNYLLESPHRFSVADLQQIADGVYEGFLKALIEFASQHVYHCDLCTQRGFICQICQHHDIIFPFEFDTTVRCAECKTVFHQSCQAVVKKGCPRCARRRKYQEQNIFA
modifications: left off: Flag, end not stated, kept
**Q.** B1 was tested. Which “co-precipitation with GFP-LC3B” value (GFP-LC3B) did it give?
**A.** Its value is “increased co‐precipitation with GFP‐LC3B”.

**Q.** What about the “co-precipitation with GFP-LC3B” value (GFP-LC3B; listed as Plekhm1-WCIL) of the same molecule?
**A.** Its value is “increased interaction”.

B2: Plekhm1-mutLIR: full-length PLEKHM1-Flag, mutant LIR EDEWVNV/AAAAVNG (protein)
chain: MLSVVENGLDPQAAIPVIKKKLVGSVKALQKQYVSLDTVVTSEDGDANTMCSALEAVFIHGLHAKHIRAEAGGKRKKSAHQKPLPQPVFWPLLKAVTHKHIISELEHLTFVNTDVGRCRAWLRLALNDGLMECYLKLLLQEQARLHEYYQPTALLRDAEEGEFLLSFLQGLTSLSFELSYKSAILNEWTLTPLALSGLCPLSELDPLSTSGAELQRKESLDSISHSSGSEDIEVHHSGHKIRRNQKLTASSLSLDTASSSQLSCSLNSDSCLLQENGSKSPDHCEEPMSCDSDLGTANAEDSDRSLQEVLLEFSKAQVNSVPTNGLSQETEIPTPQASLSLHGLNTSTYLHCEAPAEPLPAQAASGTQDGVHVQEPRPQAPSPLDLQQPVESTSGQQPSSTVSETAREVGQGNGLQKAQAHDGAGLKLVVSSPTSPKNKSWISEDDFYRPSREQPLESASDHPIASYRGTPGSRPGLHRHFSQEPRKNCSLGALDQACVPSPGRRQAQAAPSQGHKSFRVVHRRQMGLSNPFRGLMKLGTVERRGAMGIWKELFCELSPLEFRLYLSNEEHTCVENCSLLRCESVGPAHSDGRFELVFSGKKLALRASSQDEAEDWLDRVREALQKVRPQQAAAAVNGQYPDQPEEPPEAPQGCLSPSDLLSEPAALQGTQFDWSSAQVPEPDAIKESLLYLYMDRTWMPYIFSLSLEALKCFRIRNNEKMLSDSHGVETIRDILPDTSLGGPSFFKIITAKAVLKLQAGNAEEAALWRDLVRKVLASYLETAEEAVTLGGSLDENCQEVLKFATRENGFLLQYLVAIPMEKGLDSQGCFCAGCSRQIGFSFVRPKLCAFSGLYYCDICHQDDASVIPARIIHNWDLTKRPICRQALKFLTQIRAQPLINLQMVNASLYEHVERMHLIGRRREQLKLLGDYLGLCRSGALKELSKRLNHRNYLLESPHRFSVADLQQIADGVYEGFLKALIEFASQHVYHCDLCTQRGFICQICQHHDIIFPFEFDTTVRCAECKTVFHQSCQAVVKKGCPRCARRRKYQEQNIFA
modifications: left off: Flag, end not stated, kept
**Q.** Which “co-precipitation with GFP-LC3B” value (GFP-LC3B) does the source give for B2 here?
**A.** Its value is “decreased interaction”.

B3: E19V: GFP-FUNDC1 E19V (protein, UniProt Q8IVP5 1-155, looked up, variant E19V)
FUN14 domain-containing …: MATRNPPPQDYESDDDSYVVLDLTEYARRHQWWNRVFGHSSGPMVEKYSVATQIVMGGVTGWCAGFLFQKVGKLAATAVGGGFLLLQIASHSGYVQIDWKRVEKDVNKAKRQIKKRANKAAPEINNLIEEATEFIKQNIVISSGFVGGFLLGLAS
modifications: GFP tag
**Q.** For B3, which “interaction of FUNDC1 with endogenous GABARAP” value (endogenous GABARAP) is on record?
**A.** The value was “moderately enhanced”.

**Q.** What about the “interaction of FUNDC1 with endogenous LC3” value (endogenous LC3B) of the same molecule?
**A.** Its value is “increased LC3 interaction”.

B4: L21V: GFP-FUNDC1 L21V (protein, UniProt Q8IVP5 1-155, looked up, variant L21V)
FUN14 domain-containing …: MATRNPPPQDYESDDDSYEVVDLTEYARRHQWWNRVFGHSSGPMVEKYSVATQIVMGGVTGWCAGFLFQKVGKLAATAVGGGFLLLQIASHSGYVQIDWKRVEKDVNKAKRQIKKRANKAAPEINNLIEEATEFIKQNIVISSGFVGGFLLGLAS
modifications: GFP tag
**Q.** What does the source list for B4?
**A.** interaction of FUNDC1 with endogenous GABARAP (endogenous GABARAP): little effect; interaction of FUNDC1 with endogenous LC3 (endogenous LC3B): little effect

— publication PMC5538626, “Structural and functional analysis of the GABARAP interaction motif (GIM)” (EMBO Reports, 2017)
